Tests used:
[1] = PAA-glycan ELISA, AcSTn-PAA; type: binding; details: 200 ng/well PAA antigen; 1:5 dilutions from 1 μM
Protocol: 18D2 and 18C7 antibodies were further characterized by ELISA comprising antigens other than BSM. ELISAs were carried out according to Example 2, with the exception that ELISA plates were coated with biotinylated polyacrylamide (PAA) particles comprising either AcSTn (AcSTn-PAA), GcSTn (GcSTn-PAA) or Tn (Tn-PAA) as antigens. These particles present the antigens in a multivalent format. Briefly, 96-well ELISA plates were coated with 200 ng/well of each PAA antigen and blocked with PBS with 1% OVA. Antibodies were serially diluted at 1:5 in PBS with 1% OVA using an initial concentration of 1 μM. After blocking, antibodies were added to the plates and plates were incubated for 1.5 hours at room temperature. Binding of anti-STn antibodies was detected using a goat anti-mouse IgG-HRP conjugated antibody (Jackson Immunoresearch Laboratories, West Grove, Pa.). The reaction was developed by addition of HRP substrate and hydrogen peroxide. The reaction was then stopped by the addition of sulfuric acid (1.6 M). Optical densities were measured at 490 nm. A dose-response curve was generated using readings at each concentration tested and a non-linear regression curve was generated with four-parameter modeling to determine EC50 values for each antibody.

[2] = Glycan array, 9-O-acetylated AcSTn; type: binding; details: glycan microarray, Cy3 anti-mouse IgG
Protocol: (§1) Optimized glycan arrays comprise 71 chemically synthesized and well-defined glycans, most of which comprise Neu5Ac and Neu5Gc glycan pairs.
(§2) 300 ml of epoxy blocking buffer is prepared by combining 15 ml of 2 M Tris buffer (pH 8) with 0.9 ml of 16.6 M ethanolamine and 284.1 ml of distilled water. The solution was brought to a final pH of 9.0 with HCl. The solution is filtered using a 0.2 μM nitrocellulose membrane. The epoxy buffer solution as well as 1 L of distilled water are pre-warmed to 50° C. Glass slides are arranged in a slide holder and quickly submerged in a staining tub with the warmed epoxy blocking buffer. Slides are incubated in the epoxy blocking buffer for 1 hour at 50° C. with periodic shaking to deactivate epoxy binding sites. Next, slides are rinsed and blocked with PBS with 1% OVA at 25° C. for one hour. Serum samples with polyclonal antibodies (1:1000) or purified monoclonal antibodies (1 ug/mL), are diluted in PBS with 1% OVA and added to the glycan array for one hour at 25° C. After extensive washing, binding of antibodies are detected by incubating glycan microarray slides with Cy3-conjugated anti-mouse IgG (Jackson Immunoresearch, West Grove, Pa.) for one hour. Slides are then washed extensively, dried and scanned with a Genepix 4000B scanner (Laser at 100%; gain at 350; 10 μm pixels). […]

[3] = Glycan array, 9-O-acetylated GcSTn; type: binding; details: glycan microarray, Cy3 anti-mouse IgG
Protocol: as §1, §2

[4] = MDA-MB-231-STn xenograft model, percent body weight change; type: in vivo, mouse; details: 5 mg/kg i.p. once weekly
From the text: To evaluate antibody drug conjugates (ADCs) as single agents in an MDA-MB-231-STn Human Breast Tumor Xenograft model, 40 ICR SCID female mice age range 6-8 weeks were randomly separated into four separate groups, one vehicle control and three ADC treatments, then maintained individually with food/water ad libitum (see the following Table).
Animals were inoculated in the subcutaneous right flank with 5×10^6 breast tumor cells (MDA-MB-231-STn) in matrigel, mean tumor size was 175-225 mm^3 at study initiation. Animals were given either vehicle or antibody drug conjugates (5 mg/kg) by intraperitoneal injection once weekly. Tumor volume and percent body weight change were determined once weekly until study termination. The study was terminated when the tumor in the vehicle control animal reached a mean tumor weight ≥1500 mm^3. SE refers to “standard error.”

[5] = E3-STn allograft model, complete blood count (CBC); type: in vivo, mouse; parameters: White blood cells Level: unit not given here; details: CBC at end of study, 5 mice
Protocol: At the end of the study, a complete blood count (CBC) was obtained for 5 mice treated with antibody as well as 3 mice treated with vehicle control. Blood was collected from all mice via terminal cardiac puncture and processed for plasma. Blood was placed in EDTA microtainer tubes (BD & Co., Franklin Lakes, N.J.) then centrifuged. Plasma layers were then removed and snap frozen in cryo vials (Thermo-Fisher Scientific, Rochester, N.Y.) and stored at −80° C. until analysis. Analysis was carried out to look for levels of a variety of factors.

[6] = E3-STn allograft model, average weight of mice; type: in vivo, mouse
Protocol: Balb/c mice were used as part of the test system. 50 female mice were inoculated with E3-STn cells to cause STn-expressing tumor formation. Mice were maintained under pathogen-free conditions with irradiated feed and autoclaved water.
The average weight of mice in each treatment group was also determined on days 1, 4, 6, 8, 11, 13, 15, 18, 20, 22, 26, 27, 29, 32, 34, 36, 39 and 41 following the first administration of each test article (see the following Table). The percent gain or loss over initial weight values is listed in parentheses.

B1: 18C7: anti-STn mouse monoclonal, IgG2c κ, from mouse #4436; VH SEQ ID NO: 4, VL SEQ ID NO: 5 (antibody, V domains shown)
VH: QVTLKESGPGILQPSQTLSLTCSFSGFSLSTFGMGVGWIRQPSGKGLEWLAHIWWDDDKYYNPALKSRLTISKDTSKNQVFLKIANVDTADTATYYCARIAYYYGSERDYWGQGTTLTVSS
VL: QIVLTQSPAIMSASPGEKVTMTCSASSSISYMHWYHQKPGTSPKRWIYDTSKLASGVPARFSGSGSGTSYSLTISSMEAEDAATYYCHQRSSYTFGGGTKLEIKR
EC50 [1]: 4.1 nM | mean fluorescence intensity, Neu5,9Ac2-α2,6-GalNAc [2]: about 4,500 | mean fluorescence intensity, Neu5,9Ac5Gc-α2,6-GalNAc [3]: about 2,000

B2: S3F: 3F1 variable domains combined with IgG2a constant domains; heavy chain SEQ ID NO: 63, light chain SEQ ID NO: 64 (antibody)
heavy: QVQLQQSDAELVKPGASVKISCKASGYTFTDHAIHWVKQKPEQGLDWIGYISPGNGDIKYNEKFKDKVTLTADKSSSTACMHLNSLTSEDSAVYFCKRSLLALDYWGQGTTLTVSSAKTTAPSVYPLAPVCGDTTGSSVTLGCLVKGYFPEPVTLTWNSGSLSSGVHTFPAVLQSDLYTLSSSVTVTSSTWPSQSITCNVAHPASSTKVDKKIEPRGPTIKPCPPCKCPAPNLLGGPSVFIFPPKIKDVLMISLSPIVTCVVVDVSEDDPDVQISWFVNNVEVHTAQTQTHREDYNSTLRVVSALPIQHQDWMSGKEFKCKVNNKDLPAPIERTISKPKGSVRAPQVYVLPPPEEEMTKKQVTLTCMVTDFMPEDIYVEWTNNGKTELNYKNTEPVLDSDGSYFMYSKLRVEKKNWVERNSYSCSVVHEGLHNHHTTKSFSRTPGK
light: DIVMTQSHKFMSTSVGDRVSITCKASQDVGTNIAWYQQKPGRSPKVLIYSASTRHTGVPDRFTGSGSGTDFTLTISNVQSEDLTDYFCQQYSSFPLTFGVGTKLELKRADAAPTVSIFPPSSEQLTSGGASVVCFLNNFYPKDINVKWKIDGSERQNGVLNSWTDQDSKDSTYSMSSTLTLTKDEYERHNSYTCEATHKTSTSPIVKSFNRNEC
body weight at study termination [4]: overall increase in body weight | Percent Body Weight Change ([4]; study day 1): 0% | Percent Body Weight Change ([4]; study day 4): −0.01% | Percent Body Weight Change ([4]; study day 8): −1.29% | Percent Body Weight Change ([4]; study day 10): −1.36% | Percent Body Weight Change ([4]; study day 15): −1.09% | Percent Body Weight Change ([4]; study day 18): −0.51% | Percent Body Weight Change ([4]; study day 23): 1.49% | Percent Body Weight Change ([4]; study day 25): 2.17%

B3: 7G9: anti-STn mouse monoclonal, IgG2b κ, from mouse #4407; VH SEQ ID NO: 12, VL SEQ ID NO: 9 (antibody, V domains shown)
VH: QVQLKESGPGLVAPSQNLSITCTVSGFSLTSYGVNWVRQPPGKGLEWLGVIWGDGSTNYHSALISRLIISKENSKSQVFLKLNSLQTNDTATYYCTKGFVYWGQGTLVTVSA
VL: QIVLTQSPAIMSASPGEKVTMTCSASSSVSYMHWYQQKSGTSPKRWIFDTSKLASGVPARFSGSGSGTSYSLTISSMEAEDAATYYCQQWSSNLLTFGAGTKLELK
% Lymphocytes Level [5]: 44.4% | % Monocytes Level [5]: 4.6% | % Neutrophils (Segmented) Level [5]: 51.0% | Hematocrit Level [5]: 46.9% | Hemoglobin Level [5]: 16.0 g/dL | Lymphocytes Level [5]: 5.6 10^9/L | Mean Corpuscular Hemoglobin Concentration Level [5]: 34.2 g/dL | Mean Corpuscular Hemoglobin Level [5]: 16.2 pg | Mean Corpuscular Volume Level [5]: 47.4 fL | Mean platelet volume Level [5]: 7.4 fL | Monocytes Level [5]: 0.7 10^9/L | Neutrophils Level [5]: 7.6 10^9/L | Platelet Cell Distribution Width Level [5]: 32.2% | Platelet count Level [5]: 712.2 10^3 | Red Cell Distribution Width Level [5]: 19.0% | Red blood cells Level [5]: 9.9 10^6/L | White blood cells Level [5]: 13.9 | Average Weight ([6]; day 1 of study): 17.1 g | Average Weight ([6]; day 4 of study): 17.3 g | percent gain or loss over initial weight ([6]; day 4 of study): (1.7) % | Average Weight ([6]; day 6 of study): 18.2 g | percent gain or loss over initial weight ([6]; day 6 of study): (6.9) % | Average Weight ([6]; day 8 of study): 18.2 g | percent gain or loss over initial weight ([6]; day 8 of study): (6.5) % | Average Weight ([6]; day 11 of study): 18.3 g | percent gain or loss over initial weight ([6]; day 11 of study): (7.3) % | Average Weight ([6]; day 13 of study): 18.6 g | percent gain or loss over initial weight ([6]; day 13 of study): (8.9) % | Average Weight ([6]; day 15 of study): 18.7 g | percent gain or loss over initial weight ([6]; day 15 of study): (9.9) % | Average Weight ([6]; day 18 of study): 18.6 g | percent gain or loss over initial weight ([6]; day 18 of study): (9.0) % | Average Weight ([6]; day 20 of study): 18.9 g | percent gain or loss over initial weight ([6]; day 20 of study): (10.8) % | Average Weight ([6]; day 22 of study): 18.9 g | percent gain or loss over initial weight ([6]; day 22 of study): (11.1) % | Average Weight ([6]; day 26 of study): 19.0 g | percent gain or loss over initial weight ([6]; day 26 of study): (11.7) % | Average Weight ([6]; day 27 of study): 19.1 g | percent gain or loss over initial weight ([6]; day 27 of study): (11.9) % | Average Weight ([6]; day 29 of study): 19.4 g | percent gain or loss over initial weight ([6]; day 29 of study): (14.0) % | Average Weight ([6]; day 32 of study): 19.2 g | percent gain or loss over initial weight ([6]; day 32 of study): (12.6) % | Average Weight ([6]; day 34 of study): 19.5 g | percent gain or loss over initial weight ([6]; day 34 of study): (14.2) % | Average Weight ([6]; day 36 of study): 19.6 g | percent gain or loss over initial weight ([6]; day 36 of study): (14.8) % | Average Weight ([6]; day 39 of study): 20.2 g | percent gain or loss over initial weight ([6]; day 39 of study): (18.7) % | Average Weight ([6]; day 41 of study): 20.3 g | percent gain or loss over initial weight ([6]; day 41 of study): (19.2) % | percent gain in weight as compared to Paclitaxel and vehicle control ([6]; over the course of treatment): higher percent gain in weight

Source: patent publication US20180280504A1, “GLYCAN-INTERACTING COMPOUNDS AND METHODS OF USE” (SIAMAB THERAPEUTICS, INC., priority 2014, published 2018)
